Assay: soluble on expression in E. coli; label from the status in PepcDB or PDB records

Sequence | soluble on expression in E. coli
MAHHHHHHMDKQAERGQSAGPVKTPQGTQPPAHNYTYHTNAAQRAVYDYLKNVKPIPELAEPKTYKTYEEASVEAVLYPIIEKHQVIMVAGAFFGDEGKGKTVNAVANHPGCTFIARVNSGENAGHTVYDDAGRKFVFNLAPSGLLSKGKRNYVGPECVMDPISFMENEVKQLIEANVPYKEQLFIGNVSIVTPYHKLLDLLASAPNSSTLKGMAPIHASKVTKRGIRLDHIFNDQSVLRSRLRKDIDTYFGFLKVKGLSDADVLRRCEKENGDGVVRVPPYVVEFVQAEDKVEYLVKLYMDRVRNNKNFPARCDVAHELRSALSRGEKVMLEGPQSYWLSNAREKFWESTTSADTTASGLLATAQYNFQLYSSVVINVHKAPGSSRVGVGANPSSFVAQDYFSATGVKTLRDLPENMCVDFDSIQKLFFTKAFHPETKEYNGIWEPLEFEDSTGKYNIGVAMAVASSRQHGECGAVTKKPRVCGFFDCVLQYEVNAVQGPYLSISALDRGDDYDKLGVTIAYVYYNGKNDEVLNINGREYKNGDIIKAGEAVPGEVALYYCHPIVKLINGWKQTPIAASKRKPGDPLPRGVCEFLSTVEYFTKAKIISIGNGPRGKDIIYIKQ | not soluble
MLKLLIVDDAMFMRTMIKNIVKDSDFEVVAEAENGLEAVKKYDEVKPDIVTLDITMPEMDGLEALAQIMAKDPSAKVIMCSAMGQQGMVVDAIKKGAKDFIVKPFQADRVLEALEKAAK | not soluble
MASTKDEVVRMSVDEYWEDIKDDYLIQLANTDPNEVYPSNNPGPTTADGQINFECHCVGHLVGSPCGFEFREAITCQKTNSDGEIEQGACGKELMSFMECVTRTQCFGTGDNDKK | not soluble
MTVTLAGNPIEVGGHFPQVGEIVENFILVGNDLADVALNDFASKRKVLNIFPSIDTGVCATSVRKFNQQAAKLSNTIVLCISADLPFAQARFCGAEGIENAKTVSTFRNHALHSQLGVDIQTGPLAGLTSRAVIVLDEQNNVLHSQLVEEIKEEPNYEAALAVLA | soluble
MGSDKIHHHHHHMNPNIAKISSLLSDPSRSSILLSLMDGRIHPAGELAYLANIKPQTASFHLNKLLEAKLISVEKHGRHRYYRLADSDAANVIEQLLHIAPKAKVKSLKESKEKKDLHFARTCYDHLAGYVGVQMAHSLVEQGMLKKVDLNFEVTSEGALFFSKLGINEEQQRNKRRAFARCCLDWSERQHHIAGALGNALLVRMLEEEWIVRMPKTRAIRITQSGKIAFEKHLNVKI | not soluble
FGKVGYATNLTYTANRNKIMKMVHDYKNPSDGSLFSITELTLQDKGGVYLREKDAIGDVYVKGILARGKDGKLIEEEGGYKVDRSQRIKIGSVNPDFSIGWRHNVTWNNITLDLLFNGRFGGIVTSSTQAFLDDYGVSKDTYKARQNGGVWVNGTQYDAEKYYTTIGGEQLMAYYAYKATNIRLQEASLSYTLPGKWFGNVINRLTVSAIGRNLWMIYNKAPFDPEMTSSTGTYNRGDVFMPPSLRSVGFSVKIEL | not soluble
MPNVKDITRESWILSTFPEWGTWLNEEIEEEVVAEGNFAMWWLGNCGVWIKTPGGANVVMDLWSNRGKSTKKVKDMVRGHQMANMAGVRKLQPNLRAQPMVIDPFAINELDYYLVSHFHSDHIDINTAAAIINNPNLDHVKFVGPYECGEIWKKWGVPEERIIVIKPGESFEFKDIKVTAVESFDRTCLVTLPVDGAEEHDGELAGLAVTDEEMARKAVNYIFETPGGTIYHGADSHFSNYFAKHGKDYKIDVAINNYGDNPVGIQDKMTSIDLLRMAENLRAKVIIPVHYDIWSNFMASTDEILQLWKMRKERLQYDFHPFIWEVGGKYTYPQDKDRIEYHHPRGFDDCFEQESNIQFKALLMAGDPLEHHHHHH | soluble
MAHHHHHHMEDAQSGRASFSLRVPLCELLPKDSSLTDSPQNAVNLLYTICFSNTELKLRMKVTNTSEEQSAPFQFAFHTYFAVSDVSRTVVSGVNRSPFVDNCKARGNPDAPPSPPEQLWIIRGEHDRVYPDQACAIVLQDMGAKTTLQISSPNLSDVCLWNPGESKCAAMKDMPPDGYKHFVCVEHGKMLKKVVVPPCSSWTGTQEIAIIAESPHESSI | not soluble
MQVLWSNPIELGMTGGDVRMVKGPSDALRCLADHWPYRGPYYVAARSACRAAIDGRRTCEEARRLFLSAAEEARLKAH | not soluble
MSLISIVVLYYSRHGSTQALARQIARGVESVEGCQALLRTVAELDGTASNSDPYLSLDELKQCDGLALGSPVWFGNMAAPLKHFWDQTTPLWLSGALIDKPACVFTSSSTLHGGQETTQQSMMLPLLHHGMLILGIPYSEPALHTTQSGGTPYEGHHHHHH | not soluble
MSCTTDKLIQKYDALVRKTTEHKFAKELCAGTLKDRSLYIYLSQDLQFFETSLRLICKTTSLAPTTHALITLAKKIGFFSNDENSYFHDCLELLAPSLTKEERDNFDNKAIPGVDAYINFLDELRKDASITWPSLVTSLWVAEELYWRWARDTPRAPGLHWKYQKWIDLHDGEHFQTWCEFLKAEVDKFPVEEVESIFVKVSQFEFEFFESCYNA | not soluble
MLQINQMFSVQLSLGEQTWESEGSSIKKAQQAVANKALTESTLPKPVQKPPKSNVNNNPGSITPTVELNGLAMKRGEPAIYRPLDPKPFPNYRANYNFRGMYNQRYHCPVPKIFYVQLTVGNNEFFGEGKTRQAARHNAAMKALQALQNEPIPERSPQNGESGKDMDDDKDANKSEISLVFEIALKRNMPVSFEVIKESGPPHMKSFVTRVSVGEFSAEGEGNSKKLSKKRAATTVLQELKKLPPLPVVEKPKLFFKKRPKTIVKAGPEYGQGMNPISRLAQIQQAKKEKEPDYVLLSERGMPRRREFVMQVKVGNEVATGTGPNKKIAKKNAAEAMLLQLGYKASTNLQDQLEKTGENKGWSGPKPGFPEPTNNTPKGILHLSPDVYQEMEASRHKVISGTTLGYLSPKDMNQPSSSFFSISPTSNSSATIARELLMNGTSSTAEAIGLKGSSPTPPCSPVQPSKQLEYLARIQGFQAALSALKQFSEQGLDPIDGAMNIEKGSLEKQAKHLREKADNNQAPPGSIAQDCKKSNSAV | soluble
MKWTVQQLRRFQHKEMAIDETVDVSDLKQIDTLIRDISPVHVQGKADVGSTKFTFHLTLSGTMVLPCSRTLVDVAYPFSIQTTETFFADGSGIVETDEDTHMVAGDTIDLNPIIRELILLEIPLQLIAEGPVAGGAPQHGEGWDVLSEEEWEKAMQEREKKVDPRLAGLAKFFEEKREE | not soluble
MLVIKGVKAYTMSNIGVVEKANIIVKDGKIVDVTQELPPLEGKTVVDGEGLIALPGLIDPHTHLGVYSLEWEYGDHGTEKSDPITPHFKVIDGLDIFDPGFKDAIAGGVTTVSVEPGAPLSWASYEKTTIMPGQSAILKTNGRIIKEEAGIKIAVGGHVRKFLEELKLTPTTRMGIFAMIRMILHKAKEYLEKEDKQYDPKLEALATLLKNETVARVHAHLSRDMLSIIRLLKEFDIKNIIIEHGTEAYKISDVLKENGIPVILGPVIFPRRGVELRELSSKLAFQLYNSGMMFALTTDHPALPIQYLTLVAAACVGEGLPYEEALKSITINPAKILGIDRFVGSLEPGKDADIVLFDGDPLNPESKVMYTIIDGEVVYER | soluble
MSATAGRVVRAGQHAVRTVAPIKSNNSAEARMSVLAAYKEFQRLTPKFWWDFGLHDMPLGVFRAVIKKQFTKNGHLTDVRVVDRLVGETHQHMKSIRYAFYNPDHVRNYLFAENVEAKPKDFLSKFLNGKE | not soluble
MRVLGIETSCDETGIAVYDDKAGLLANQLYSQVKLHADYGGVVPELASRDHVRKTVPLIQAALKEANLSAKDIDAVAYTAGPGLVGALLVGATIGRALAFAWGVPAVPVHHMEGHLLAPMLEENAPEFPFVALLVSGGHTQLISVTGIGEYLLLGESVDDAAGEAFDKTAKLLGLDYPGGPMLSRMAQQGTVGRFTFPRPMTDRPGLDFSFSGLKTFAANTIRANGDDDQTRADIARAFEDAVVDTLAIKSKRALDQTGFKRLVIAGGVSANQTLRLKLADMMQKRGGEVFYARPEFCTDNGAMIAYAGMVRLRSNLNSELSVSVRPRWPLSELPKV | not soluble
MIKDILNTIASLVEENVVVFASERGKQLLQKVKADLVSFKPINFYALDAGKQITDALKLIESYCIEMNRIFDELNHQSSVSLANEKLTHKIKNILTNLKNKQNKITQLREKIPEGMLDIKRALYIVENSFLSESEPEEKELRSKFKRIKKFMSNSNKEYLDLIKKGGLLNTVLLDTTTLYWNQLHEYSTLLNQCRITLQKSHHLTKEGQLALRCFNSAIQKMPPKKHIINALKILNKPNSKTEAIEKIGFVSPHGREACMQLTCWGKKFFYIPRSEEMYHFDYDPKEDLNETGGNCFGESMMFIHFLSKGAIRWLCPEAGLINFQLDQTRNLKFKKATLGEGETLVSDNSPHDSLEWEDMRPVLLDNPYFKPGSLCGVIFSMNDYTKAKREFTAGHMIVVAKLDTNLNPYKYIIYEKDFGAFGLTDDESLEYLISEQILPLYRGMNYSKIKLVKYGEASTETYDLLNKIKPQTGIPQKESTASDSINTYFDNAFFKLSKETNKENVIDQVNQTDVFGFCRN | not soluble
MGSDKIHHHHHHMRVSSDDALFYRIEAFFRGRAYGPHRHDTYAVGITTAGIQSIRYRGELVHSSPGDTVVIHPDEIHDGRAGTVAGYCYRIVHLQPEALQQILGQTSLPFIKEGVSQNAQLYQAIWAMLREFDRPLEPLERTDLLFDLAMALQAAAGTAKAKHTGNIKAALIARDCIRSAPSQRIELDVLARESGRDRWSLSRDFRQFFGTSPSRYMTMRRLDIARRLMSNGTPLAECAVAVGFADQSHMSRQFVEAFGLTPTRWLTMLR | not soluble
MGSDKIHHHHHHGEDEKKPEIVVDPAEKTIEYYIAGKVTEGTTALSGVEVKAGEVTATTDAEGAYKLTVDSKKMYTVTFSKEGYMSIDNATATIADNAANRSMVSLSVKLSKKAPEKEVKADAEEEVVVTDKGDSNISQAEAAVIIPPKAIETTTTVSVTPYEEPAAVTTTVTPGNNVETPVAIANIEVETAKEVTLAKPVTLAIINKASEHTTFENVEVYNQKTTTRAGENWNKVADAIYDSETNSYKFTLPAGASLSGKYSMRVKSSKTTGKERIGETNKEEKKSNEGNMTAIPEYKINFEATAGWEYTVSPEKALMNAGVDAADAQGMATTINSAIEAQEGTTGTYKVAHELIAGISGNHILYYLNQAKYCEKTYTFKISGGRTVTITLKFYTGMQITYTNVEASQHSGGKI | not soluble
MKLIWSPETASKAYIDTVKSCENLGTPGAAELVAAMAAGWNANLIVETWSEGETIAISVGLNIASRHTNGRHICIVPNARSQTAYLQAMAEQSCSNLPETIIMNEEGEELEHTMQTLQGIDFLVVDWDQKDFAANVLRNAVFGSRGAVVVCRSGYRRSTSCFSWTKAFSDRNVVRTVTLPVSGGLEIAHVAAARSSGKSDNNSNKRKWIKHFDQRSGEEHVIRK | soluble
MGSDKIHHHHHHMKLSCSQSELNNALQLVSRAVSNRPTHPVLANVLLAADEVTGKLRLTGFDLSLGIQTSISASIDSSGAITLPAKLFGEIVSKLSNDSPLVLTSDETSQQVELTSKSGTYQVRGMLSDDFPELPLVENGTSFKLNPLLLSNAIKSTLFASSTDDAKQLLTGVNLTFDGYGIESAATDGHRLAVLNLNNILSDSKEIDSSIKFEKFSITLPSKSLREVEKFLSTCDISHPINFFIDKGQVVFISVEDIITIRALEGSYPNYSQLLPDTFENELEFDRKEFISSLERIAVLADQHNNVIKVTTDGSANLIKISTDAQDIGTGYESLPVSYKGDSFQIAFNVRYLLDGLKVIDSNLIKLSCNSPTTPAIFSPINSDVNFTYLVMPIQIRN | not soluble
